{
  "source": "patent US20100016434",
  "proteins": {"B1": {"name": "EGLN3 in vitro translate (protein)", "chain": "MPLGHIMRLDLEKIALEYIVPCLHEVGFCYLDNFLGEVVGDCVLERVKQLHCTGALRDGQLAGPRAGVSKRHLRGDQITWIGGNEEGCEAISFLLSLIDRLVLYCGSRLGKYYVKERSKAMVACYPGNGTGYVRHVDNPNGDGRCITCIYYLNKNWDAKLHGGILRIFPEGKSFIADVEPIFDRLLFFWSDRRNPHEVQPSYATRYAMTVWYFDAEERAEAKKKFRNLTRKTESALTED"}},
  "target": "T1, biotinylated HIF1α peptide, Q16665",
  "T1 chain": "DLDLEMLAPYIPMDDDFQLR",
  "data": [
    {"protein": "B1", "values": [
      {"measurement": "EGLN3 prolyl hydroxylase activity on the HIF1α peptide, read by capture of 35S-labeled pVHL", "value": "EGLN3 hydroxylase activity was diminished in the face of increasing amount of succinate"}
    ]}
  ]
}
